Test results taken from the nanobody polyreactivity screen of Harvey et al. (2022).

assay: yeast display, Sf9 membrane polyspecificity reagent, FACS + sequencing; frameworks hold sequencing errors
Procedure, shortened: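 After 36–48 hours of galactose induction, yeast (Saccharomyces cerevisiae BJ5465) displaying a synthetic nanobody library were stained at 4 °C for 1 hour with 10% biotinylated, detergent-solubilized Sf9 membrane reagent. Streptavidin microbeads enriched the stained cells before FACS sorting into low and high (top ~1%) gates on anti-HA and streptavidin fluorescence. Each clone's polyreactivity label reflects its gate of origin.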

| Sequence | polyreactivity (PSR sort gate) |
| --- | --- |
| QVQLVESGGGLVQAGGSLRLSCAASGSIFRVYAMRWYRQAPGKERELVAAISKSGSSTYYADSVKGRFTISRDNAKNTVYLQMNSLKPEDTAVYYCAARRVLGEYGYWGQGTQVTVSS | high polyreactivity |
| QVQLVESGGGLVQAGGSLRLSCAASGSIFRWNAMGWYRQAPGKERDLVDVINSSVGSTYYADSVKGRFTISRDNAKNTVYLQMYSLKPEDTAVYYCAADVELGWGNSVAYEYWGQGTQVTVSS | low polyreactivity |
| QVQLVESGGGLVQAGGSLRLSCAASGSIFRWYAMGWYRQAPGKERDLVAAITWSGGRTYYADSVKGRFTISRDNAKNTVYLQMNSLKPEDTAVYDCAKPALVTSYRVGYNYWGQGTQVTVSS | high polyreactivity |
| QVQLVESGGGLVQAGGSLRLSCAASGSIFRWYAMGWYRQAPGKERELVASISSGTRTNYADSVKGRFTISRDNAKNTVYLQMNSLKPEDTAVYYCAAPYVKRWWGYGYWGQGTQVTVSS | high polyreactivity |
| QVQLVESGGGLVQAGGSLRLSCAASGSIFRWYAMGWYRQAPGKERELVAVISYGGGSTYYADSVKGRFTISRDNAKNTVYLQMNSLKPEDTAVYYCAADPTWRYYYHYTYYYWGQGTQVTVSS | high polyreactivity |
| QVQLVESGGGLVQAGGSLRLSCAASGSIFRWYDMGWYRQAPGKERELVAAITWSGSTYYADSVKGRFTISRDNAKNTVYLQMNSLKPEDTAVYYCAAGSRYCNAETYSWYDYWGQGTQVTVSS | high polyreactivity |
| QVQLVESGGGLVQAGGSLRLSCAASGSIFRWYDMGWYRQAPGKERELVAAITWSGSTYYADSVKGRFTISRDNAKNTVYLQMNSLKPEDTAVYYCAAGSRYSYAYTMDYWGQGTQVTVSS | high polyreactivity |
| QVQLVESGGGLVQAGGSLRLSCAASGSIFRYNAMGWYRQAPGKEREFVAIISYAGVRTYYADSVKGRFTISRDNAKNTVYLQMNSLKPEDTAVYYCAADFKQKGHRTRTTYWGQGTQVTVSS | high polyreactivity |
| QVQLVESGGGLVQAGGSLRLSCAASGSIFRYNAMGWYRQAPGKERELVAAISWSGGSTYYADSVKGRFTISRDNAKNTVYLQMNSLKPEDTAVYYCATRYYVNVPGRRYGYWGQGTQVTVSS | low polyreactivity |
| QVQLVESGGGLVQAGGSLRLSCAASGSIFRYNAMGWYRQAPGKERELVASISISDGSTYYADSVKGRFTISRDNAKNTVYLQMNSLKPEDTAVYYCAARTRDFYYPYDYWGQGTQVTVSS | low polyreactivity |
| QVQLVESGGGLVQAGGSLRLSCAASGSIFRYNAMGWYRQAPGKERELVAVITSTGSTSYADSVKGRFTISRDNAKNTVYLQMNSLKPEDTAVYYCAATRERHYSYQYLVPYYYWGQGTQVTVSS | high polyreactivity |
| QVQLVESGGGLVQAGGSLRLSCAASGSIFRYYAMGWYIQAPGKERELVASITRGGTRTYYADSVKGRFTISRDYAQNTVYLQMNSLKPEDTAVYYCAATYAWYVAPTYDYWGQGTQVTVSS | high polyreactivity |
| QVQLVESGGGLVQAGGSLRLSCAASGSIFRYYAMGWYRQAPGKEREFVASITYRGGRTYYADSVKGRFTISRDNAKNTVYLQLNSLKPEDTAVYYCAARTRAGAWTSKYLDYWGQGTQVTVSS | high polyreactivity |
| QVQLVESGGGLVQAGGSLRLSCAASGSIFRYYAMGWYRQAPGKERELVAAIRWSGGRTYYADSVKGRFTISRDNAKNTVYLQMNSLKPEDTAVYYCAADQPDYKTNVRYYYWGQGTQVTVSS | high polyreactivity |
| QVQLVESGGGLVQAGGSLRLSCAASGSIFRYYAMGWYRQAPGKERELVAAISRRGSSTYYPDSVKGRFTISRDNAKNTVYLQMNSLKPEDTAVYYCATAYRGRAWGYDYWGQGTQVTVSS | high polyreactivity |
| QVQLVESGGGLVQAGGSLRLSCAASGSIFRYYAMGWYRQAPGKERELVAAISSSGGSTYYADSVKGRFTISRDNAKNTVYLQMNSLKPEDTAVYYCARDWPSYYARQYDYWGQGTQVTVSS | high polyreactivity |
| QVQLVESGGGLVQAGGSLRLSCAASGSIFRYYAMGWYRQAPGKERELVAGISRSGGSTYYADSEKGRFTISRDNAKNTVYLQMNSLKPEDTAVYYCAATAYSPRGKRYDSWGQVTQVTVSS | high polyreactivity |
| QVQLVESGGGLVQAGGSLRLSCAASGSIFRYYAMGWYRQAPGKERESVADITSSGGSTYYADSVKGRFTISRDNAKNTVYLQMNSLKPEDTAVSYCAREDNLRHQSDSRYDYWGQGTQVTVSS | low polyreactivity |
| QVQLVESGGGLVQAGGSLRLSCAASGSIFRYYDMGWYRQAPGKERELVAAISWSGGTTYYADSVKGRFTISRDNAKNSVYLQMNSLNPEDTAVYYCNRVRYPSFVYWGQGTQVTVSS | high polyreactivity |
| QVQLVESGGGLVQAGGSLRLSCAASGSIFRYYDMGWYRQAPGKERELVAAISWSGGTTYYADSVKGRFTISRDNAKNTVYLQMNSLKPEDTAVYYCNRVRYPSYDYWGQGTQVTVSS | high polyreactivity |
| QVQLVESGGGLVQAGGSLRLSCAASGSIFRYYDMGWYRQAPGKERELVAAITYSGGGTYYADSLKGRFTISRDNAKNTVYLQMNSLKPEDTAVYYCAAEPYYGWQRLDYWGQGTQVTVSS | low polyreactivity |
| QVQLVESGGGLVQAGGSLRLSCAASGSIFRYYTMGWYRQAPGKERELVARISSSGSTNYADSVKGRFTISRDNAKNTVYLQMNSLKPEDTAVYYCAARSFSWAGYYYWGQGTQVTVSS | low polyreactivity |

| Sequence | polyreactivity (PSR sort gate) |
| --- | --- |
| QVQLVESGGGLVQAGGSLRLSCAASGSIFRYYTMGWYRQEPGKERELVAAISCNGGRTYYADSVKGRFTISCDNAKNTVYLQMNSLKPEDTAVYYCNAVYILTETWYDYWGQGTQVTVSS | high polyreactivity |
| QVQLVESGGGLVQAGGSLRLSCAASGSIFRYYVMGWYRQAPGKERELVAAINGGGGSTYYADSVKGRFTISRDNAKNTVYLQMNSLKPEDTAVYYCNAVGGTRGKYPYFKYGYWGQGTQVTVSS | high polyreactivity |
| QVQLVESGGGLVQAGGSLRLSCAASGSIFSANAMGWYRQAPGKERELVAAIRRTGGSTYYADSVKGRFTISRDNAKNTVYLQMNSLKPEDTAVYFCTKRHSILYEGGYDYWGQGTQVTVSS | low polyreactivity |
| QVQLVESGGGLVQAGGSLRLSCAASGSIFSANVMGWYRQAPGKERELVAAITRGGGTYYADSVKGRFTISRDNAKNTVYLQMNSLKPEDTAVYYCNDDYTLSVYGTTYWYNYWGQGTQVTVSS | high polyreactivity |
| QVQLVESGGGLVQAGGSLRLSCAASGSIFSANVMVWYRQAPGKEWELVAASRRGGTTYYADSVKGRFTISRDNAKNTVYLQMNSLKPEDTAVYYCATDGNFGSYLRFAVAYDYWGQGTQVTVSS | low polyreactivity |
| QVQLVESGGGLVQAGGSLRLSCAASGSIFSDYTMGWYRQAPGKERELVAAISGIGGSTYYADSVKGRFTISRDNAKNTVYLQMNSLTPEDTAVYYCAPDDYYYPYFSHDYWGQGTQVTVSS | low polyreactivity |
| QVQLVESGGGLVQAGGSLRLSCAASGSIFSFYAMGWYRQAPGKERELVAAIDVSGGSTYYADSVKGRFTISRDNAKNTVYLQMNSLKPEDTAVYYCAKDVRDQYDYWGQGTQVTVSS | low polyreactivity |
| QVQLVESGGGLVQAGGSLRLSCAASGSIFSFYAMGWYRQAPGKERELVAAITSDGSTDYADSVKGRFTISRDNAKNTVYLQMNSLKPEDTAVYYCAADYIVRVVSRYRYGYEYWGQGTQVTVSS | low polyreactivity |
| QVQLVESGGGLVQAGGSLRLSCAASGSIFSFYAMGWYRQAPGKERELVATISSGDNTNYADSVKGRFTISRDNAKNTVYLQMISLKPEDTAVYYCAADAWGVDREYDYWGQGTQVTVSS | low polyreactivity |
| QVQLVESGGGLVQAGGSLRLSCAASGSIFSFYTMGWYRQAPGKERELVARIRSSGGDTYYADSVKGRFTISRDNAKNTVYLQMNSLKPEDTAVYYCARDGYHRDYDYWGQGTQVTVSS | low polyreactivity |
| QVQLVESGGGLVQAGGSLRLSCAASGSIFSGNAMGRYRQAPGKERELVAAISRSGGSTYYADSVKGRFTISRDNAKNTVYLQMNSLKPEDTAVYYCAAYRTHGPPRAIRFDYWGQGTQVTVSS | high polyreactivity |
| QVQLVESGGGLVQAGGSLRLSCAASGSIFSGNAMGWYRQAPGKERELVAAISRSGGSTYYADSVKGRFTISRDNAKNTVYLQMNSLKPEDTAVYYCAAYRTHGPPRAIRFDYWGQGTQVTVSS | high polyreactivity |
| QVQLVESGGGLVQAGGSLRLSCAASGSIFSGNAMGWYRQAPGKERELVAAISRSGGSTYYADSVMGRFTISRDNAKNTVYLQMNSLKPEDTAVYYCNAGRYRAGGWGVGEGYWGQGTQVTVSS | high polyreactivity |
| QVQLVESGGGLVQAGGSLRLSCAASGSIFSGNAMGWYRQAPGKERELVAFISWNAVGTYYSDSVKGRFTISRDNAKNTVYLQLNSLKPEDTAVYYCSAVRYTGFYYWGQGTQVTVSS | high polyreactivity |
| QVQLVESGGGLVQAGGSLRLSCAASGSIFSGNAMGWYRQAPGTERELVATISWSGGSTNYADSVKGRFTISRDNAKNTVYIQMNSLKPEETSVYYCNAYVAYWGWVYRVDYWRQGTQVTVSS | low polyreactivity |
| QVQLVESGGGLVQAGGSLRLSCAASGSIFSGYAMGWYRQAPGKERELVAAITWRGGSTYYADSVKGRFTISRDNAKNTVYLQMNSLKPEDTAVYYCARVWAWSRYDYWGQGTEVTVSS | high polyreactivity |
| QVQLVESGGGLVQAGGSLRLSCAASGSIFSGYTMGWYRQAPGKERELVATISSSGGRTRYADSVKGRFTISRDNAKNTVYLQMNSLKPEDTAVYYCAAAYYVKYNSEYEYWGQGTQVTVSS | high polyreactivity |
| QVQLVESGGGLVQAGGSLRLSCAASGSIFSGYTMGWYRQAPGQERELVAAISYRGGRTYYADSVKGRFTISRDNAKNTVYLQMNSLKPEDTAVYYCNAAPYITRRHDYWGQGTQVTVSS | high polyreactivity |
| QVQLVESGGGLVQAGGSLRLSCAASGSIFSIYAMGWYRQAPGKERELVAAIDSGTSTTYADSVKGRFRISRDNAKKTVYLQMKSLKPEDTAVYYCAAALYSDVAAVATFGYYWGQGTQVTVSS | low polyreactivity |
| QVQLVESGGGLVQAGGSLRLSCAASGSIFSIYAMGWYRQAPGKERELVAAISWSGGSTYYADSVKGRFTISRDNAKNTVYLQMTSQKPEDTAVYYCLRQDYHYHPYDYWGQGTQVTVSS | low polyreactivity |
| QVQLVESGGGLVQAGGSLRLSCAASGSIFSIYAMGWYRQAPGKERELVAAITWGGGSTYYADSVKGRFTISRDNAKNTVNLQMNSLKPEDTAVYYCAADSLTWFGTYYYWGQGTQVTVSS | high polyreactivity |
